The values that follow are results of earlier work, collected in article PMC11945212.

As a reminder, the Kd is the constant that tells how readily two partners part at equilibrium.

The series concerns the target Adducin (Homo sapiens) (UniProt P35611).
UniProt P35611, sequence (P35611 whole entry, chain 1 of 2): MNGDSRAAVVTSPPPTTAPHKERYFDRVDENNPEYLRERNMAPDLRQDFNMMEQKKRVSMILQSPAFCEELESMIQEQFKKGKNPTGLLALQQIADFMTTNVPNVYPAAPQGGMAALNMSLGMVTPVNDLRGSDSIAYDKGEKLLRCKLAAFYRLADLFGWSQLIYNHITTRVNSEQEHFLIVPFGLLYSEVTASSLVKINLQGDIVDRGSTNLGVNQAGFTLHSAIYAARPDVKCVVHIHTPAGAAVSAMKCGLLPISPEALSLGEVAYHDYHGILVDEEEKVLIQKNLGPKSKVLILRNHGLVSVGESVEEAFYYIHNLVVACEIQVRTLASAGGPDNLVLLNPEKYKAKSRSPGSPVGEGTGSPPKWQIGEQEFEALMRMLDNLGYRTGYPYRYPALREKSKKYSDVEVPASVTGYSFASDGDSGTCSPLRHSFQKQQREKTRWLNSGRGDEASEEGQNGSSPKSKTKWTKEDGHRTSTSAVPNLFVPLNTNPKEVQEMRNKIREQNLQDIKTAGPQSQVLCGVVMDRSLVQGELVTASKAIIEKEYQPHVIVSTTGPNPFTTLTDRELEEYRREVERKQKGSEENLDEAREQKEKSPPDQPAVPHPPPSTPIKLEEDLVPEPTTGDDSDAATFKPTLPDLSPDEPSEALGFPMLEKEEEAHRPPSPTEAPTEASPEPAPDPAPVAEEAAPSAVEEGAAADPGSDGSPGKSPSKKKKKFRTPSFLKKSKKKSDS
UniProt P35611, sequence (P35612 whole entry, chain 2 of 2, further chain): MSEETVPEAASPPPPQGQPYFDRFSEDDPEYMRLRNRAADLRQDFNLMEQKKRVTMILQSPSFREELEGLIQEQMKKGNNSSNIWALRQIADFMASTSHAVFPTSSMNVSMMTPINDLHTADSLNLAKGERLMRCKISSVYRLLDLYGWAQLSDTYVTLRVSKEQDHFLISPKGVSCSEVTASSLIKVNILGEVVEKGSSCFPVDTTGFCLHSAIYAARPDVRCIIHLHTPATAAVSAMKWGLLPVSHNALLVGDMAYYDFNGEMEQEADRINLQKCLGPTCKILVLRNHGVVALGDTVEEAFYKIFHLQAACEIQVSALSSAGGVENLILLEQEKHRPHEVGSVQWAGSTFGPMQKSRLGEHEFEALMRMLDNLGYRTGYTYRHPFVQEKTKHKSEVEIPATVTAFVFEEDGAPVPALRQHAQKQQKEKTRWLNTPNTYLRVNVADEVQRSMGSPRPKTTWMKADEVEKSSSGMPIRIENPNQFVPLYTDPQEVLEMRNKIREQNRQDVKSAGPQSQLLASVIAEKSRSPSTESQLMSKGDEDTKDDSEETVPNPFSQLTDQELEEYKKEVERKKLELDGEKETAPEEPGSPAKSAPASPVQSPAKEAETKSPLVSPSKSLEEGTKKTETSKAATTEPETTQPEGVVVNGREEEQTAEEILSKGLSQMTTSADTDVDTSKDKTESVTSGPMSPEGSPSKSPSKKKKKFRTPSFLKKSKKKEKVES

With Band 3 (from UniProt P02730), the Kd is 0.1 µM.
